Assay results published in paper doi:10.1101/2024.07.21.604514.

Columns and labels:
[1] = biological target: human GLP-1R-LgBiT-2MBP (glucagon-like peptide-1 receptor, construct for structure determination) (human) (UniProt P43220)
[2] = biological target: human GLP-1R-LgBiT-2MBP (glucagon-like peptide-1 receptor, construct for structure determination) (human) (UniProt P43220); remark: listed apart in the source

UniProt P43220, sequence (P43220 24-463): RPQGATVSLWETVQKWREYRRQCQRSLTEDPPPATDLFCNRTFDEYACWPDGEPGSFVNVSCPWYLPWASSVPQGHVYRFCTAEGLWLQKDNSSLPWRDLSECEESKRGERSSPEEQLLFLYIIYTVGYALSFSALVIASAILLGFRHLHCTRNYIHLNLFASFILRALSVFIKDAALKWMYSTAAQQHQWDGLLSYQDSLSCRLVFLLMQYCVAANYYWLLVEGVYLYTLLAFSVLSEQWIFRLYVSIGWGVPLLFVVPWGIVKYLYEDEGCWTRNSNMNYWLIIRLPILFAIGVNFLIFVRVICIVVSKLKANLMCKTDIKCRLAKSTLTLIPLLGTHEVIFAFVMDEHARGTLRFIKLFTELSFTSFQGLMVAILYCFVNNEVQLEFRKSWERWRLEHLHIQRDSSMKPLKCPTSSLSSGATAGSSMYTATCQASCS

Substance GLP-1(9-36)NH2 (peptide) has an EC50 of cAMP accumulation, WT GLP-1R, with 5 μM LSN3318839 [1] of 0.41 nM and an EC50 of cAMP accumulation, WT GLP-1R, with 50 nM LSN3318839 (full agonist) [2] of 23 nM.
